How the values were obtained:
[1] = Thioflavin T; type: physicochemical; details: 2.5 μM Aβ in PBS, 20 μM ThT, room temperature, shaking 100 rpm between reads
[2] = system: immortalized human cortical astrocytes; assay: Cell viability of astrocytes; type: cell-based; details: 4 μM Aβ, 24 hours, 37°C; three biological replicates
[3] = FCS size characterization; type: physicochemical; details: individual 30 s FCS measurements, 10 per sample; three preparations

Substance | ThT aggregation t1/2 [1] | toxicity of Aβ to astrocytes (cell viability) [2] | CV of sizes within the same preparation [3]
Aβ monomers: Aβ42 peptide with methionine as N-terminal residue, recombinantly expressed in E. coli, SEC-purified aggregate-free monomer | 1.32 ± 0.13 h |  | 
Aβ oligomers: stable pre-formed Aβ oligomers prepared by the protocol of Barghorn et al. with SDS |  | significantly higher toxicity | 17 ± 2%

From article doi:10.1101/2025.11.19.685371v1 (bioRxiv, 2025)
